Measured values taken from the supplement of paper PMC12667976.

B1: library; numbered along this chain (parent)
chain: MATDAALRRLLRLHRTEIAVAVDSAFPLLHALADHDVVPEDKFQETLHLKEKEGCPQAFHALLSWLLTQDSTAILDFWRVLFKDYNLERYGRLQPILDSFPKDVDLSQPRKGRKPPAVPKALVPPPRLPTKRKASEEARAAAPAALTPRGTASPGSQLKAKPPKKPESSAEQQRLPLGNGIQTMSASVQRAVAMSSGDVPGARGAVEGILIQQVFESGGSKKCIQVGGEFYTPSKFEDSGSGKNKARSSSGPKPLVRAKGAQGAAPGGGEARLGQQGSVPAPLALPSDPQLHQKNEDECAVCRDGGELICCDGCPRAFHLACLSPPLREIPSGTWRCSSCLQATVQEVQPRAEEPRPQEPPVETPLPPGLRSAGEEVRGPPGEPLAGMDTTLVYKHLPAPPSAAPLPGLDSSALHPLLCVGPEGQQNLAPGARCGVCGDGTDVLRCTHCAAAFHWRCHFPAGTSRPGTGLRCRSCSGDVTPAPVEGVLAPSPARLAPGPAKDDTASHEPALHRDDLESLLSEHTFDGILQWAIQSMARPAAPFPS

Variants of: B1
Assay: AIRE transcriptional activation functional score (insulin promoter-GFP; nonsense median 0, synonymous median 1) (normalised score); higher = higher AIRE activity (more reporter activation)
Details: with insulin promoter-GFP reporter in HEK293
Procedure, shortened: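 Functional scores come from comparing select with non-select enrichment of each variant and subtracting wild type. Codon-optimized AIRE NNN-codon libraries across three regions were integrated via Bxb1 recombinase into HEK293 landing-pad cells with an insulin core promoter-GFP reporter, and integrants sorted at day 7 were expanded 7 days before top 10% GFP and unselected populations were tile-sequenced. Variants needed 10 counts per million in non-select, and values were rescaled to nonsense median 0 and synonymous median 1 before averaging over biological replicates.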

AIRE transcriptional activation functional score: each site, then its substitutions
D410: Q 1.2; T 1.41; L 1.08; S 1.27; A 1.09; P 0.93; W 0.337; M 0.501; K 0.35; E 1.11; I 1.19; R 0.412; V 0.998; G 0.967; N 1.12; C 1.12; Y 1.27; F 1.06; H 1.17
S402: W 1.22; G 1.34; V 0.921; A 1.05; H 1.48; M 0.776; Q 0.546; N 1.13; K 0.894; P 1.07; Y 1.17; F 0.518; R 1.02; I 0.78; E 0.833; T 0.974; D 0.871; L 0.984; C 1.1
L414: N 1.07; F 1.41; D 1.03; T 1.14; K 0.634; Y -0.109; A 1.49; H 0.857; V 1.1; I 1.45; S 0.625; W 0.979; C 0.792; E 1.08; P 0.785; R 0.749; G 0.546
S412: F 1.37; Q 0.66; I 0.868; D 0.652; A 1.09; C 0.988; T 1.02; M 1.3; R 1.07; G 1.03; P 0.711; K 0.899; H 1.26; V 1.13; Y 1.5; E 0.743; L 1.15; N 0.717; W 1.72
H415: G 0.474; I 0.632; A 1.08; D 0.797; C 0.616; L 1.22; E 1.32; F 1.67; K 0.65
S411: Y 1.06; T 0.867; W 1.31; D 0.711; Q 0.0682; A 1.04; L 1.24; V 1.06; F 1.46; R 0.871; E 0.407; C 1.45; K 1.18; N 0.99; M 1.37; I 1.3; P 1.08; G 0.952; H 0.897
L406: M 1.3; S 0.856; A 0.954; I 1.19; W 0.702; T 0.633; D 0.772; H 1.19; V 0.908; C 1.3; Y 1.02; F 0.76; G 1.08; E 1.12; K 0.516; Q 1.11; N 1.18; R 0.985; P 0.97
A399: F 1.64; E 0.88; Y -0.0769; Q 0.327; T 0.845; W 1.2; K 0.799; P 1.38; I 0.768; V 0.911; C 1.18; R 0.779; H 1.63; S 0.793; N 0.798; G 0.994; L -0.706; M 1.22
P398: F 1.43; W 1.64; G 1.14; S 0.979; H 1.24; T 1.21; R 0.958; A 1.09; V 1.31; Y 1.69; Q 1.31; L 1.5; K 1.04; E 0.984; M 0.82; I 1.23; N 0.615; C 0.359; D 0.585
G408: D 1.2; L 0.00278; I 0.636; C 1.01; H 1.31; S 1.03; W 1.34; E 1.05; V 0.743; P 0.97; Q 1.29; Y 1.08; K 1.14; T 0.879; A 0.914; N 0.674; R 0.906; F 1.28
L397: I 0.407; W 0.989; M 0.0442; Y 0.779; N 0.167; R 0.938; P 0.66; F 0.99; K 0.921; T 0.852; G 0.775; H 0.0686; S 0.938; V 0.641; Q 1.36
L409: I 1.16; A 0.384; Y 0.962; N 0.459; M 1.03; H 0.62; P 1.25; T 1.02; D 1.21; F 0.907; C 0.887; G 0.891; V 0.903; R 0.789; S 1.23; E 0.899; K 0.881; Q 0.636
P400: A 1.56; W 1.89; L 0.451; I 0.76; S 0.846; D 0.319; H 0.71; Y 1.69; N 0.58; Q 1.52; R 1.16; E 0.545; F 0.712; G 1.13; C 0.972; T 0.851; V 0.815
P401: F 0.595; N 1.09; V 0.635; E 1.49; T 0.717; K 1.55; A 0.611; M 0.689; D 1.07; G 1.14; H 1.01; S 1.25; L 0.646; R 1.15; C 1.7; Q 1.18; I 0.809; Y 1.14
P405: E 0.742; F 1.03; I 1.59; K 1; N 1.22; Y 1.17; L 0.801; R 0.984; V 1.21; H 1.04; Q 0.685; S 1.05; T 1.16; G 0.341; C 1.59
P407: Q 1.2; C 1.24; W 1.13; I 1.43; D 1.67; A 0.943; S 1.19; N 1.39; F 1.2; M 1.6; Y 1.51; H 1.28; E 0.454; G 1.07; T 1.18; L 1.06; K 0.865; V 1.23; R 0.823
A404: P 1.28; Y 1.3; K 1.05; L 1.26; G 0.91; E 0.954; D 0.792; T 1.04; M 0.918; C 0.451; F 1.26; V 0.729; H 1.66; Q 0.81; S 1.02; I 0.94; R 1.01; W 1.16
A403: I 1.5; C 0.942; M 1.38; H 1.02; K 1.06; N 1.09; Y 0.507; V 1.29; T 1.14; R 0.877; E 1.14; G 1.26; S 0.725; D 0.541; P 0.99; L 1.29; F 1.09; W 1.72; Q 0.915
A413: P 0.731; H 0.905; S 0.965; D 0.666; I 1.34; E 0.842; M 1.02; C 1.42; W 1.15; G 1.12; F 0.975; R 0.964; L 1.43; K 0.606; V 0.931; T 1.17; Q 1.01; Y 1.25; N 0.373
